Laboratory results as given in IntAct's records for PubMed 20668449.

B1: Regulator of chromosome condensation (Homo sapiens), P18754 (parent)
chain: MSPKRIAKRRSPPADAIPKSKKVKVSHRSHSTEPGLVLTLGQGDVGQLGLGENVMERKKPALVSIPEDVVQAEAGGMHTVCLSKSGQVYSFGCNDEGALGRDTSVEGSEMVPGKVELQEKVVQVSAGDSHTAALTDDGRVFLWGSFRDNNGVIGLLEPMKKSMVPVQVQLDVPVVKVASGNDHLVMLTADGDLYTLGCGEQGQLGRVPELFANRGGRQGLERLLVPKCVMLKSRGSRGHVRFQDAFCGAYFTFAISHEGHVYGFGLSNYHQLGTPGTESCFIPQNLTSFKNSTKSWVGFSGGQHHTVCMDSEGKAYSLGRAEYGRLGLGEGAEEKSIPTLISRLPAVSSVACGASVGYAVTKDGRVFAWGMGTNYQLGTGQDEDAWSPVEMMGKQLENRVVLSVSSGGQHTVLLVKDKEQS
B2: N-terminal Xaa-Pro-Lys N-methyltransferase 1 (Homo sapiens), Q9BV86 (parent)
chain: MTSEVIEDEKQFYSKAKTYWKQIPPTVDGMLGGYGHISSIDINSSRKFLQRFLREGPNKTGTSCALDCGAGIGRITKRLLLPLFREVDMVDITEDFLVQAKTYLGEEGKRVRNYFCCGLQDFTPEPDSYDVIWIQWVIGHLTDQHLAEFLRRCKGSLRPNGIIVIKDNMAQEGVILDDVDSSVCRDLDVVRRIICSAGLSLLAEERQENLPDEIYHVYSFALR

Variants of: B1
Details: with ntm1a_human NTMT1, Q9BV86

Row | Variant | effect of a mutation on the interaction
1 | K4Q | disrupting interaction

Variants of: B1
Details: with ntm1a_human NTMT1, Q9BV86
Remark: another data set of the same source

Row | Variant | effect of a mutation on the interaction
2 | S2V | decreasing interaction
3 | S2D | disrupting interaction strength

Variants of: B2
Details: with rcc1_human RCC1, P18754

Row | Variant | effect of a mutation on the interaction
4 | D180K | disrupting interaction
5 | N168K | disrupting interaction
